Test system: T1, TetR1 (C_22735) (Pseudomonas syringae pv. actinidiae biovar 3 strain S26 (M228)), ORF:bd32bde6
T1 sequence: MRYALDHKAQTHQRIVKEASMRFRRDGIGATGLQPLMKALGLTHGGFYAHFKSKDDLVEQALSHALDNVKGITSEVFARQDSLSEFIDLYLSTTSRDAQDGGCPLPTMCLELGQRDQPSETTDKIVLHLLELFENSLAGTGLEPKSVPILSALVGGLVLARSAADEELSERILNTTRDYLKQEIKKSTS
Assay: EMSA
Settings: LightShift EMSA Optimization and Control kit (Thermo) per manufacturer, 100 ng probe per reaction, varied protein; 2 uL of 1 mg/mL Myc.A7 for supershift …

## TTGAGTCGAGGATCACAATCTTCTGAAACATGGGCTTACCCTGATTTAATGGTGTGCAAGCCCTATAGCGATAACCATGCCAGCTTAAAAATATAAATAAGCCACTGATTTATAACGATATTTTAAAATATGAAATCCTTTGCAATACAAAACTTTGCGCAAACCGTTTTTTGCCACAACAGCTTTTGGCACAAAAACATCGGCCAGCTTCGCAAGGGAACTGATCCGGGACCGTGACCCACTCAGCGAACATAACCCGGCT (double strand) [hrpL upstream probe (262 bp)]
  binding: binds

From article PMC12285254
